Numbering of substitutions follows the chain as printed.
B1: Hu3A5 (V1) antibody (antibody, V domains shown)
VH: EVQLVQSGAEVKKPGASVKVSCKASGYTFTSYWMHWMRQAPGQGLEWIGVIDPSDSYTSYNQKFQGRVTLTVDTSTSTAYMELSSLRSEDTAVYYCARGGKRAMDYWGQGTTVTVSS
VL: DVVMTQSPLSLPVTLGQPASISCRSSQSLVHSNGNTYLHWFQQRPGQSPRLLIYKVSNRFSGVPDRFSGSGSGTDFTLKISRVEAEDVGVYFCSQSTHVPFTFGGGTKLEIK
notes: Humanized 3A5
B2: Hu3A5 (V2) antibody (antibody, V domains shown)
VH: B1 VH
VL: B1 VL with F92Y
notes: Humanized 3A5
B3: Hu3A5 (V5) antibody (antibody, V domains shown)
VH: B1 VH with E1Q, M37V, I48M, L70M
VL: B1 VL
notes: Humanized 3A5
B4: Hu3A5 (V6) antibody (antibody, V domains shown)
VH: B1 VH with E1Q, M37V, I48M, L70M
VL: B1 VL with F92Y
notes: Humanized 3A5
B5: Hu3A5 (V3) antibody (antibody, V domains shown)
VH: B1 VH
VL: DVVMTQSPDSLAVSLGERATINCKSSQSLVHSNGNTYLHWYQQKPGQPPKLLIYKVSNRFSGVPDRFSGSGSGTDFTLTISSLQAEDVAVYFCSQSTHVPFTFGGGTKLEIK
notes: Humanized 3A5
B6: Hu3A5 (V4) antibody (antibody, V domains shown)
VH: B1 VH
VL: B5 VL with F92Y
notes: Humanized 3A5
B7: Hu3A5 (V7) antibody (antibody, V domains shown)
VH: B1 VH with E1Q, M37V, I48M, L70M
VL: B5 VL
notes: Humanized 3A5
B8: Hu3A5 (V8) antibody (antibody, V domains shown)
VH: B1 VH with E1Q, M37V, I48M, L70M
VL: B5 VL with F92Y
notes: Humanized 3A5
B9: Hu3A5 (V9) antibody (antibody, V domains shown)
VH: EVQLVQSGSELKKPGASVKVSCKASGYTFTSYWMHWMRQAPGQGLEWIGVIDPSDSYTSYNQGFTGRFVLSVDTSVSTAYLQISSLKAEDTAVYYCARGGKRAMDYWGQGTTVTVSS
VL: B1 VL
notes: Humanized 3A5
B10: Hu3A5 (V13) antibody (antibody, V domains shown)
VH: B9 VH with E1Q, H35N, M37V, I48M, L70F
VL: B1 VL
notes: Humanized 3A5
B11: Hu3A5 (V14) antibody (antibody, V domains shown)
VH: B9 VH with E1Q, H35N, M37V, I48M, L70F
VL: B1 VL with F92Y
notes: Humanized 3A5
B12: Hu3A5 (V11) antibody (antibody, V domains shown)
VH: B9 VH
VL: B5 VL
notes: Humanized 3A5
B13: Hu3A5 (V12) antibody (antibody, V domains shown)
VH: B9 VH
VL: B5 VL with F92Y
notes: Humanized 3A5
B14: Hu3A5 (V15) antibody (antibody, V domains shown)
VH: B9 VH with E1Q, H35N, M37V, I48M, L70F
VL: B5 VL
notes: Humanized 3A5
B15: Hu3A5 (V16) antibody (antibody, V domains shown)
VH: B9 VH with E1Q, H35N, M37V, I48M, L70F
VL: B5 VL with F92Y
notes: Humanized 3A5
B16: Hu3A5 (V10) antibody (antibody, V domains shown)
VH: B9 VH
VL: B1 VL with F92Y

Target: T1, CD47 on the CD47-overexpressing breast cancer cell line MCF-7 (UniProt Q08722 19-323, limits assumed)
T1 construct: whole, on cells; Endogenous CD47 on MCF-7 cells; The positive control used on these cells is an anti-human CD47 antibody; also called CD47 overexpressing tumor cells (MCF-7); MCF-7 cells expressing CD47
T1 sequence (Q08722 19-323 limits assumed): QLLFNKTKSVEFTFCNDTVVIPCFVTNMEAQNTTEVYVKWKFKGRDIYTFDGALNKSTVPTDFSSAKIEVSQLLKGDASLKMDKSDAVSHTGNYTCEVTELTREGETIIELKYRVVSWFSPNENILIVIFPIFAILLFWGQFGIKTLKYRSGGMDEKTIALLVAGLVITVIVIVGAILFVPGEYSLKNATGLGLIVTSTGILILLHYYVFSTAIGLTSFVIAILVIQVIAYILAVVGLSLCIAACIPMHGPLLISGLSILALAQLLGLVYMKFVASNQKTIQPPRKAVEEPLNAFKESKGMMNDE
Experiment: flow cytometry on MCF-7 cells, 1 µg antibody

Molecule | binding result
B1 | binds
B2 | binds
B3 | binds
B4 | binds
B5 | binds
B6 | binds
B7 | binds
B8 | binds
B9 | binds
B10 | binds
B11 | binds
B12 | binds
B13 | binds
B14 | binds
B15 | binds

Target: CD47 protein (Acrobiosystems, cat#CD7-HA2E9) (UniProt Q08722)
Sequence (Q08722 19-139 limits assumed): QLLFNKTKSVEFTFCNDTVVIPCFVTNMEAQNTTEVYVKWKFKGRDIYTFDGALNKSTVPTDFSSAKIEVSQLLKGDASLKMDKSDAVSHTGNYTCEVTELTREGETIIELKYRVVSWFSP
Experiment: ELISA, CD47 protein coated 100 ng/well, 0.8 µg antibody per well

Molecule | OD450 measurements
B1 | 2.58 OD450
B2 | 2.69 OD450
B3 | 2.57 OD450
B4 | 2.62 OD450
B5 | 2.54 OD450
B6 | 2.74 OD450
B7 | 2.67 OD450
B8 | 2.45 OD450
B9 | 2.65 OD450
B10 | 0.0966 OD450
B11 | 0.147 OD450
B16 | 2.81 OD450
B12 | 2.81 OD450
B13 | 2.85 OD450
B14 | 0.111 OD450
B15 | 0.106 OD450

Target: CD47 on the CD47-overexpressing breast cancer cell line MCF-7 (UniProt Q08722)
Sequence (Q08722 19-323 limits assumed): as the sequence (Q08722 19-323 limits assumed) above
Experiment: flow cytometry on MCF-7 cells, secondary antibody alone (background control)

Molecule | Mean (fluorescence) | Median (fluorescence)
PE-conjugated goat anti-mouse IgG antibody (Biolegend Inc., cat# 405307) | 80 | 73.9

— EP4365197A1 (Innobation Bio Co., Ltd., dated 2024)
